T1: human FcRH1 (full-length, on SVT2 cells) (human, UniProt Q96LA6 17-429)
T1 construct: whole, on cells; also called SVT2-FcRH1
T1 sequence (looked up): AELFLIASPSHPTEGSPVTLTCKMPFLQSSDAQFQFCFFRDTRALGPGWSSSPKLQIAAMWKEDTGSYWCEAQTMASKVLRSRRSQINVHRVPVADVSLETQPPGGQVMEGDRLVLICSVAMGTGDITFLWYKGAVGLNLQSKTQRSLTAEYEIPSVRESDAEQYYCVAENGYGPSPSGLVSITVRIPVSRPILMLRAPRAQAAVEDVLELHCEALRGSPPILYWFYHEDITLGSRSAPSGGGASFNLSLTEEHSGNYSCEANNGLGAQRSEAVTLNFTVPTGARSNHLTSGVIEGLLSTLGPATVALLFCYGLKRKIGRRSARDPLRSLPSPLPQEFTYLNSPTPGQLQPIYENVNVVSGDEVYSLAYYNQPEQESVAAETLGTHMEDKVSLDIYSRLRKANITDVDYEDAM

T2: human FcRH4 (full-length, on SVT2 cells) (human, UniProt Q96PJ5 20-515)
T2 construct: whole, on cells; also called SVT2-FcRH4
T2 sequence (looked up): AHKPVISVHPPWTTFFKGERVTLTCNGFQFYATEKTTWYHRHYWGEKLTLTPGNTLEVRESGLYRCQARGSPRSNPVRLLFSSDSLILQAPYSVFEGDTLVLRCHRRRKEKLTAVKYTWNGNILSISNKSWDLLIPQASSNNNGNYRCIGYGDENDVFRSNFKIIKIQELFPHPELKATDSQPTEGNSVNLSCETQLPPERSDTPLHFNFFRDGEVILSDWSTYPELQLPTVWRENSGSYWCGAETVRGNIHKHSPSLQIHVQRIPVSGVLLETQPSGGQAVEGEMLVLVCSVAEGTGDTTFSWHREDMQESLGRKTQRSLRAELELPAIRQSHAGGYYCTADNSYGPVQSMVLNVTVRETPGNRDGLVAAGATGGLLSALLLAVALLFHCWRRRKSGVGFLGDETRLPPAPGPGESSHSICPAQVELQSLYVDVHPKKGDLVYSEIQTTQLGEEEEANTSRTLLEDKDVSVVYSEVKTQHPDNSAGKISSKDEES

T3: human FcRH5 protein fragment (soluble) (human, UniProt Q96RD9 16-851)
T3 construct: whole entry named; also called soluble human FcRH5; Human FcRH5 (BIACORE analyte)
T3 sequence: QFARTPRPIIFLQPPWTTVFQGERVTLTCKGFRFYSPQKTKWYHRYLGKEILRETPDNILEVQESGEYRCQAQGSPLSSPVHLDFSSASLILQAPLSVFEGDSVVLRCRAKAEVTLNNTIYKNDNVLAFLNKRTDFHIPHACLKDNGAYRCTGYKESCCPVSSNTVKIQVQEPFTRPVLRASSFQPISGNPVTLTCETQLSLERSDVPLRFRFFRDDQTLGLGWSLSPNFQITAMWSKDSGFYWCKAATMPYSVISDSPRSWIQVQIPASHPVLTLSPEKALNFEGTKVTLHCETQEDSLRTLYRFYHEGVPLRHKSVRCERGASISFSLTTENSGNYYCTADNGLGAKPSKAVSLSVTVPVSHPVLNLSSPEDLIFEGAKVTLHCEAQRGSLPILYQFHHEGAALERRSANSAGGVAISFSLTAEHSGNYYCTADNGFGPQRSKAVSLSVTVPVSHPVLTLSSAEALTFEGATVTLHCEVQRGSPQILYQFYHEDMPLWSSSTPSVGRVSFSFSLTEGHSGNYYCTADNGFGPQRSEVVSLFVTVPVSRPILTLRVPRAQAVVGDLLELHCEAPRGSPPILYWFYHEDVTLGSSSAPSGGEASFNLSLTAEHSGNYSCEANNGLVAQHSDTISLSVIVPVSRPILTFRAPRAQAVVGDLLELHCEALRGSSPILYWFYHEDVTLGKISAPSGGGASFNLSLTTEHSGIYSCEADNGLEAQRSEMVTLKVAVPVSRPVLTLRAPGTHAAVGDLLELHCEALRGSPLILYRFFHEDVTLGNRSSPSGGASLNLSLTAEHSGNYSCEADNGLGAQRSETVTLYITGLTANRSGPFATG

T4: human FcRH2 (full-length, on SVT2 cells) (human, UniProt Q96LA5 20-508)
T4 construct: whole, on cells; also called SVT2-FcRH2
T4 sequence (looked up): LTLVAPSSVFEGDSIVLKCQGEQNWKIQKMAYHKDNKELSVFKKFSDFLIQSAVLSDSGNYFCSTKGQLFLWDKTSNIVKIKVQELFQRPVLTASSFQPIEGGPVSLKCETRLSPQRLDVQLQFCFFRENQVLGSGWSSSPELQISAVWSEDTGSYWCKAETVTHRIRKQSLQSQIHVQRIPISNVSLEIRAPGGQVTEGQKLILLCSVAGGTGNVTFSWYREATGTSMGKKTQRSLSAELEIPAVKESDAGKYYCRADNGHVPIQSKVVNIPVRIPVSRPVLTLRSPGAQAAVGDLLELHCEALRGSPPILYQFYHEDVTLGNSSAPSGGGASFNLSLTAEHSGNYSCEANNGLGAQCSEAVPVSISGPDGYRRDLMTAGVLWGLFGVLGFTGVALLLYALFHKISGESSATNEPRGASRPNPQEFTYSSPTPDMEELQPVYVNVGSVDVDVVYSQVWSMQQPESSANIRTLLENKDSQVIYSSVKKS


Key:
[1] = molecular target: T1, human FcRH1 (full-length, on SVT2 cells); assay: FACS, SVT2 cells
Protocol: (§1) Human FcRH5, cyno FcRH5, human FcRH1, FcRH2, FcRH3, and FcRH4 transfected mouse SVT2 cells were used to test binding and cross-reactivity of FcRH5 TDBs. The method was carried out as follows. Cultured SVT2 cells were lifted using non-enzyme cell dissociation buffer (Sigma, #C5914). 1×10⁵ cells were suspended in 100 μL and incubated with FcRH5 TDBs at 3 μg/ml. […] Cells were washed twice with FACS buffer before flow cytometry analysis was carried out on a FACSCalibur.

[2] = molecular target: T2, human FcRH4 (full-length, on SVT2 cells); assay: FACS, SVT2 cells
Protocol: as §1

[3] = molecular target: T3, human FcRH5 protein fragment (soluble); assay: BIACORE, TDB format
[4] = molecular target: T4, human FcRH2 (full-length, on SVT2 cells); assay: FACS, SVT2 cells, 3 µg/ml
Protocol: as §1

| Binder | binding result [1] | binding result [2] | Kd [3] | binding result [4] |
| --- | --- | --- | --- | --- |
| hu1G7.v1.4/38E4.v1 TDB (bispecific antibody, V domains shown, knob-into-hole TDB; also called 1G7.v1.4 TDB; 1G7.v1.4 (TDB format)) VH 1: EVQLVESGPGLVKPSETLSLTCTVSGFSLTRFGVHWVRQPPGKGLEWLGVIWRGGSTDYNAAFMSRLTISKDNSKNQVSLKLSSVTAADTAVYYCSNHYYGSSDYALDNWGQGTLVTVSS VL 1: DIQMTQSPSSLSASVGDRVTITCKASQDVRNLVVWFQQKPGKAPKLLIYSGSYRYSGVPSRFSGSGSGTDFTLTISSLQPEDFATYYCQQHYSPPYTFGQGTKVEIK VH 2: EVQLVQSGAEVKKPGASVKVSCKASGFTFTSYYIHWVRQAPGQGLEWIGWIYPENDNTKYNEKFKDRVTITADTSTSTAYLELSSLRSEDTAVYYCARDGYSRYYFDYWGQGTLVTVSS VL 2: DIVMTQSPDSLAVSLGERATINCKSSQSLLNSRTRKNYLAWYQQKPGQSPKLLIYWTSTRKSGVPDRFSGSGSGTDFTLTISSLQAEDVAVYYCKQSFILRTFGQGTKVEIK | no binding (tested: 3 µg/ml) | no binding (tested: 3 µg/ml) | 1.4 nM | binds |
| hu1G7.v1.13.1/38E4.v1 TDB (bispecific antibody, V domains shown, knob-into-hole TDB; also called 1G7.v1.13.1 TDB) VH 1: EVQLVESGPGLVKPSETLSLTCTVSGFSLTRFGVHWVRQPPGKGLEWLGVIWRGGSTDYNAAFMSRLTISKDNSKNQVSLKLSSVTAADTAVYYCSNHYYGSSDYALDNWGQGTLVTVSS VL 1: DIQMTQSPSSLSASVGDRVTITCKASQDVRNLVVWFQQKPGKAPKLLIYSGYYRYTGVPSRFSGSGSGTDFTLTISSLQPEDFATYYCQQHYQPPYTFGQGTKVEIK VH 2: EVQLVQSGAEVKKPGASVKVSCKASGFTFTSYYIHWVRQAPGQGLEWIGWIYPENDNTKYNEKFKDRVTITADTSTSTAYLELSSLRSEDTAVYYCARDGYSRYYFDYWGQGTLVTVSS VL 2: DIVMTQSPDSLAVSLGERATINCKSSQSLLNSRTRKNYLAWYQQKPGQSPKLLIYWTSTRKSGVPDRFSGSGSGTDFTLTISSLQAEDVAVYYCKQSFILRTFGQGTKVEIK | no binding (tested: 3 µg/ml) | no binding (tested: 3 µg/ml) | 0.9 nM | binds |
| hu1G7.v1.1/38E4.v1 TDB (bispecific antibody, V domains shown, knob-into-hole TDB; also called 1G7.v1.1 TDB) VH 1: EVQLVESGPGLVKPSETLSLTCTVSGFSLTRFGVHWVRQPPGKGLEWLGVIWRGGSTDYNAAFMSRLTISKDNSKNQVSLKLSSVTAADTAVYYCSNHYYGSSDYALDNWGQGTLVTVSS VL 1: DIQMTQSPSSLSASVGDRVTITCKASQDVRNLVVWFQQKPGKAPKLLIYSGSYRYSGVPSRFSGSGSGTDFTLTISSLQPEDFATYYCQQQYSPPYTFGQGTKVEIK VH 2: EVQLVQSGAEVKKPGASVKVSCKASGFTFTSYYIHWVRQAPGQGLEWIGWIYPENDNTKYNEKFKDRVTITADTSTSTAYLELSSLRSEDTAVYYCARDGYSRYYFDYWGQGTLVTVSS VL 2: DIVMTQSPDSLAVSLGERATINCKSSQSLLNSRTRKNYLAWYQQKPGQSPKLLIYWTSTRKSGVPDRFSGSGSGTDFTLTISSLQAEDVAVYYCKQSFILRTFGQGTKVEIK | no binding (tested: 3 µg/ml) | no binding (tested: 3 µg/ml) | 2.7 nM | binds |
| hu1G7.v1.13/38E4.v1 TDB (bispecific antibody, V domains shown, knob-into-hole TDB; also called 1G7.v1.13 TDB) VH 1: EVQLVESGPGLVKPSETLSLTCTVSGFSLTRFGVHWVRQPPGKGLEWIGVIWRGGSTDYNAAFMSRLTISKDNSKNQVSLKLSSVTAADTAVYYCSNHYYGSSDYALDNWGQGTLVTVSS VL 1: DIQMTQSPSSLSASVGDRVTITCKASQDVRNLVVWFQQKPGKAPKLLIYSGYYRYTGVPSRFSGSGSGTDFTLTISSLQPEDFATYYCQQHYQPPYTFGQGTKVEIK VH 2: EVQLVQSGAEVKKPGASVKVSCKASGFTFTSYYIHWVRQAPGQGLEWIGWIYPENDNTKYNEKFKDRVTITADTSTSTAYLELSSLRSEDTAVYYCARDGYSRYYFDYWGQGTLVTVSS VL 2: DIVMTQSPDSLAVSLGERATINCKSSQSLLNSRTRKNYLAWYQQKPGQSPKLLIYWTSTRKSGVPDRFSGSGSGTDFTLTISSLQAEDVAVYYCKQSFILRTFGQGTKVEIK | no binding (tested: 3 µg/ml) | no binding (tested: 3 µg/ml) | 1.2 nM | binds |

The remaining lines, values ahead:

| binding result [1] | binding result [2] | Kd [3] | binding result [4] | Binder |
| --- | --- | --- | --- | --- |
| no binding (tested: 3 µg/ml) | no binding (tested: 3 µg/ml) | 2.6 nM | binds | hu1G7.v1.2/38E4.v1 TDB (bispecific antibody, V domains shown, knob-into-hole TDB; also called 1G7.v1.2 TDB) VH 1: EVQLVESGPGLVKPSETLSLTCTVSGFSLTRFGVHWVRQPPGKGLEWLGVIWRGGSTDYNAAFMSRLTISKDNSKNQVSLKLSSVTAADTAVYYCSNHYYGSSDYALDNWGQGTLVTVSS VL 1: DIQMTQSPSSLSASVGDRVTITCKASQDVRNLVVWFQQKPGKAPKLLIYSGYNRYSGVPSRFSGSGSGTDFTLTISSLQPEDFATYYCQQQFQPPYTFGQGTKVEIK VH 2: EVQLVQSGAEVKKPGASVKVSCKASGFTFTSYYIHWVRQAPGQGLEWIGWIYPENDNTKYNEKFKDRVTITADTSTSTAYLELSSLRSEDTAVYYCARDGYSRYYFDYWGQGTLVTVSS VL 2: DIVMTQSPDSLAVSLGERATINCKSSQSLLNSRTRKNYLAWYQQKPGQSPKLLIYWTSTRKSGVPDRFSGSGSGTDFTLTISSLQAEDVAVYYCKQSFILRTFGQGTKVEIK |
| no binding (tested: 3 µg/ml) | no binding (tested: 3 µg/ml) | 1.5 nM | binds | hu1G7.v1.3/38E4.v1 TDB (bispecific antibody, V domains shown, knob-into-hole TDB; also called 1G7.v1.3 TDB) VH 1: EVQLVESGPGLVKPSETLSLTCTVSGFSLTRFGVHWVRQPPGKGLEWLGVIWRGGSTDYNAAFMSRLTISKDNSKNQVSLKLSSVTAADTAVYYCSNHYYGSSDYALDNWGQGTLVTVSS VL 1: DIQMTQSPSSLSASVGDRVTITCKASQDVRNIVVWFQQKPGKAPKLLIYSGSYRYSGVPSRFSGSGSGTDFTLTISSLQPEDFATYYCQQQYSPPYTFGQGTKVEIK VH 2: EVQLVQSGAEVKKPGASVKVSCKASGFTFTSYYIHWVRQAPGQGLEWIGWIYPENDNTKYNEKFKDRVTITADTSTSTAYLELSSLRSEDTAVYYCARDGYSRYYFDYWGQGTLVTVSS VL 2: DIVMTQSPDSLAVSLGERATINCKSSQSLLNSRTRKNYLAWYQQKPGQSPKLLIYWTSTRKSGVPDRFSGSGSGTDFTLTISSLQAEDVAVYYCKQSFILRTFGQGTKVEIK |
